Measurements from patent US20260078159A1 (CUGENE, published 2026).
Where a chain is given by its changes, count along the chain named. Names and notes keep the numbering of the source. One block for each binder: values may come before it.

Key:
[1] = target: T1, recombinant human PD1 protein (human, UniProt Q15116 25-170, limits assumed); assay: binding ELISA, plate-coated recombinant human PD1
Procedure: Antibodies of the invention were tested for their antigen binding activity by well-known methods such as enzyme-linked immunosorbent assay (ELISA). Briefly, Nunc Maxisorp plates (ThermoFisher) were coated with recombinant human PD1 protein in bicarbonate buffer, pH 9.4 (ThermoFisher), overnight at 4° C., using 1 μg of antigen per well (100 μL/well). After triple washing with PBS/0.05% Tween 20, plates were incubated with SuperBlock (ThermoFisher) for two hours at room temperature to block nonspecific binding. The PD1 antibodies, serially diluted three-fold with blocking buffer (PBS with 1% bovine serum albumin) were added to the plates (100 μL/well) post washing and incubated at room temperature for one hour. After another washing, antibodies were detected by incubating with a horseradish peroxidase (HRP)-conjugated goat anti-human IgG Fc antibody (ThermoFisher) diluted 1:5000 in blocking buffer (100 μL/well) for one hour at room temperature. After a final wash, TMB substrate (ThermoFisher) at 100 μL/well was added. Plates were sealed and left to incubate in dark for 5-20 minutes. The reaction was stopped by adding 2N sulfuric acid (Ricca Chemical) (50 μL/well), and the absorbance was measured at 450 nm with a plate reader. The curves were plotted, and the half-maximal effective concentration (EC₅₀) values were calculated using GraphPad Prism software.

human PD1 on cells [2] = target: T2, human PD1 on cells (human, UniProt Q15116 25-288); assay: cell-based or functional assay
T2 sequence (Q15116 25-288 limits assumed): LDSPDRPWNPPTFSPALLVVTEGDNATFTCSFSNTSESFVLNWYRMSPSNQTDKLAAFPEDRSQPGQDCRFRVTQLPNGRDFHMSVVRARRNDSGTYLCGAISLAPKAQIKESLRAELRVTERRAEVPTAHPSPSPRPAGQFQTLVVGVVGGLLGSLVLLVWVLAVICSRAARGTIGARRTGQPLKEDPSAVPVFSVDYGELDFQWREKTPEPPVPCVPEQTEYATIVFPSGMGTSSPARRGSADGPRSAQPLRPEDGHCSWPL

[3] = target: T1, recombinant human PD1 protein; assay: competition ELISA, PD1 coated, biotinylated human PD-L1-Fc at 0.5 µg/mL as competitor
Procedure: A non-targeting germline antibody, P-1260 (SEQ ID NOS: 171, 172 and 173) was included as the negative control. The binding ELISA procedures were outlined in Example 3. The competition ELISA followed a similar protocol. […] After 1-hour incubation at 37° C., HRP-conjugated Streptavidin (ThermoFisher) diluted to 0.1 μg/ml were added to the plate and incubate at 37° C. for 1 hour. The plate was subsequently developed using TMB (ThermoFisher) substrate. Absorbance readings were taken at 450 nm, with 630 nm as the reference wavelength. The half-maximal inhibitory concentrations (IC50) values were deduced using GraphPad Prism software.

human PD1 on cells [4] = target: T2, human PD1 on cells; assay: flow cytometry on PD1+ HEK293 cells, MFI
Procedure: (§1) Additionally, HEK 293T cells stably expressing human PD1 gene (Crown Bioscience) was used to determine the cell-based binding strength of the optimized PD1 antibodies by flow cytometry. After harvesting, HEK293-hPD1 cells were seeded into a 96-well U-bottom plate at 1×10⁵ cells/well (100 μL), incubated with Fc block (1:50) for 20 minutes at 4° C., and subsequently washed with FACS buffer (PBS, 1% FBS). Cells were then treated with three-fold serial dilutions of each antibody at concentrations ranging from 0.01-100 nM in FACS buffer for 30 minutes at 4° C. Subsequently, cells were washed twice with FACS buffer to remove unbound molecules, and 40 µL of the 1:100 diluted PE-labeled goat anti-human Fc secondary antibody (eBiosciences) was added to the cells. Following a 30-minute incubation at 4° C. and another double wash with FACS buffer, antibodies bound to the cells were detected with PE-labeled secondary antibody by flow cytometry (BD ACCURI-C6), and EC₅₀ values were calculated using GraphPad Prism software.

human PD1 on cells [5] = target: T2, human PD1 on cells; assay: flow cytometry on PD1+ HEK293 cells, % positive cells
Procedure: as §1

T1 sequence (Q15116 25-170 limits assumed): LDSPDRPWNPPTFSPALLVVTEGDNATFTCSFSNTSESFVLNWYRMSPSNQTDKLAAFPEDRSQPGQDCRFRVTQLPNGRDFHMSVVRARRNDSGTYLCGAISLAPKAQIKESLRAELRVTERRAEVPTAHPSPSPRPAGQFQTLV

EC50 [1]: 0.0268 nM | PD1 blockade reporter assay EC50 (human PD1 on cells [2]): 0.66 nM | IC50 [3]: 1.42 nM
B1: P-1271 (antibody, human IgG1, kappa, V domains shown)
VH: QVQLVQSGAEVKKPGASVKVSCKASGYTFTNYYMYWVRQAPGQGLEWMGGINPSNGGTNFAQKFQGRVTLTTDSSTSTAYMELSSLRSDDTAVYYCARRDYRFDMGFDYWGQGTLVTVSS
VL: EIVLTQSPATLSLSPGERATLSCRASQGVSTSGYSYLHWYQQKPGQAPRLLIYLASYRESGVPARFSGSGSGTDFTLTISSLEPEDFAVYYCQHSRDLPLTFGGGTKVEIKR

EC50 (human PD1 on cells [4]): 0.12 nM | EC50 (human PD1 on cells [5]): 0.016 nM
B2: P-1199 (antibody, human IgG1, kappa, V domains shown)
VH: EVQLLESGGGLVQPGGSLRLSCAASGFTFTNYYMYWVRQAPGKGLEWVSGINPSNGGTNFADKFKGRFTISTDSSKNTLYLQMNSLRAEDTAVYYCARRDYRFDMGFDYWGQGTLVTVSS
VL: B1 VL
notes: Full-length IgG1 L234A/L235A/G237A, kappa

EC50 (human PD1 on cells [4]): 0.159 nM | PD1 blockade reporter assay EC50 (human PD1 on cells [2]): 1.28 nM | EC50 (human PD1 on cells [5]): 0.033 nM
B3: P-1201 (antibody, human IgG1, kappa, V domains shown)
VH: B2 VH with I70L
VL: B1 VL

EC50 (human PD1 on cells [4]): 0.259 nM | EC50 (human PD1 on cells [5]): 0.07 nM
B4: P-1193 (antibody, human IgG1, kappa, V domains shown)
VH: B2 VH with T72R, S74N
VL: B1 VL
notes: as for B2
